B1: SEQ ID NO 10: Pseudomonas syringae ω-transaminase (Genbank Accession No. AAY39893.1), N-terminal HIS tagged; b286 says Rhodobacter sphaeroides (protein, listed as Pseudomonas syringae)
chain: MSANNPQTLEWQALSSEHHLAPFSDYKQLKEKGPRIITRAEGVYLWDSEGNKILDGMSGLWCVAIGYGREELADAASKQMRELPYYNLFFQTAHPPVLELAKAISDIAPEGMNHVFFTGSGSEGNDTMLRMVRHYWALKGQPNKKTIISRVNGYHGSTVAGASLGGMTYMHEQGDLPIPGVVHIPQPYWFGEGGDMTPDEFGIWAAEQLEKKILELGVENVGAFIAEPIQGAGGVIVPPDSYWPKIKEILSRYDILFAADEVICGFGRTSEWFGSDFYGLRPDMMTIAKGLTSGYVPMGGLIVRDEIVAVLNEGGDFNHGFTYSGHPVAAAVALENIRILREEKIVERVRSETAPYLQKRLRELSDHPLVGEVRGVGLLGAIELVKDKTTRERYTDKGAGMICRTFCFDNGLIMRAVGDTMIIAPPLVISFAQIDELVEKARTCLDLTLAVLQG
modifications: N-terminal His tag
notes: b286 says Rhodobacter sphaeroides
B2: SEQ ID NO 7: Segniliparus rotundus carboxylate reductase (Genbank Accession No. ADG98140.1), N-terminal HIS tagged (protein, listed as Segniliparus rotundus)
chain: MTQSHTQGPQASAAHSRLARRAAELLATDPQAAATLPDPEVVRQATRPGLRLAERVDAILSGYADRPALGQRSFQTVKDPITGRSSVELLPTFDTITYRELRERATAIASDLAHHPQAPAKPGDFLASIGFISVDYVAIDIAGVFAGLTAVPLQTGATLATLTAITAETAPTLFAASIEHLPTAVDAVLATPSVRRLLVFDYRAGSDEDREAVEAAKRKIADAGSSVLVDVLDEVIARGKSAPKAPLPPATDAGDDSLSLLIYTSGSTGTPKGAMYPERNVAHFWGGVWAAAFDEDAAPPVPAINITFLPLSHVASRLSLMPTLARGGLMHFVAKSDLSTLFEDLKLARPTNLFLVPRVVEMLYQHYQSELDRRGVQDGTREAEAVKDDLRTGLLGGRILTAGFGSAPLSAELAGFIESLLQIHLVDGYGSTEAGPVWRDGYLVKPPVTDYKLIDVPELGYFSTDSPHPRGELAIKTQTILPGYYKRPETTAEVFDEDGFYLTGDVVAQIGPEQFAYVDRRKNVLKLSQGEFVTLAKLEAAYSSSPLVRQLFVYGSSERSYLLAVIVPTPDALKKFGVGEAAKAALGESLQKIARDEGLQSYEVPRDFIIETDPFTVENGLLSDARKSLRPKLKEHYGERLEAMYKELADGQANELRDIRRGVQQRPTLETVRRAAAAMLGASAAEIKPDAHFTDLGGDSLSALTFSNFLHDLFEVDVPVGVIVSAANTLGSVAEHIDAQLAGGRARPTFATVHGKGSTTIKASDLTLDKFIDEQTLEAAKHLPKPADPPRTVLLTGANGWLGRFLALEWLERLAPAGGKLITIVRGKDAAQAKARLDAAYESGDPKLAGHYQDLAATTLEVLAGDFSEPRLGLDEATWNRLADEVDFISHPGALVNHVLPYNQLFGPNVAGVAEIIKLAITTRIKPVTYLSTVAVAAGVEPSALDEDGDIRTVSAERSVDEGYANGYGNSKWGGEVLLREAHDRTGLPVRVFRSDMILAHQKYTGQVNATDQFTRLVQSLLATGLAPKSFYELDAQGNRQRAHYDGIPVDFTAESITTLGGDGLEGYRSYNVFNPHRDGVGLDEFVDWLIEAGHPITRIDDYDQWLSRFETSLRGLPESKRQASVLPLLHAFARPGPAVDGSPFRNTVFRTDVQKAKIGAEHDIPHLGKALVLKYADDIKQLGLL
modifications: N-terminal His tag
B3: SEQ ID NO 8: Chromobacterium violaceum ω-transaminase (Genbank Accession No. AAQ59697.1), N-terminal HIS tagged (protein, listed as Chromobacterium violaceum)
chain: MQKQRTTSQWRELDAAHHLHPFTDTASLNQAGARVMTRGEGVYLWDSEGNKIIDGMAGLWCVNVGYGRKDFAEAARRQMEELPFYNTFFKTTHPAVVELSSLLAEVTPAGFDRVFYTNSGSESVDTMIRMVRRYWDVQGKPEKKTLIGRWNGYHGSTIGGASLGGMKYMHEQGDLPIPGMAHIEQPWWYKHGKDMTPDEFGVVAARWLEEKILEIGADKVAAFVGEPIQGAGGVIVPPATYWPEIERICRKYDVLLVADEVICGFGRTGEWFGHQHFGFQPDLFTAAKGLSSGYLPIGAVFVGKRVAEGLIAGGDFNHGFTYSGHPVCAAVAHANVAALRDEGIVQRVKDDIGPYMQKRWRETFSRFEHVDDVRGVGMVQAFTLVKNKAKRELFPDFGEIGTLCRDIFFRNNLIMRACGDHIVSAPPLVMTRAEVDEMLAVAERCLEEFEQTLKARGLA
modifications: N-terminal His tag

Tests used:
Type in all cases: biochemical
[1] = ω-transaminase enzyme activity assay (N5-acetyl-1,5-diaminopentane to N5-acetyl-5-aminopentanal), L-alanine formation by RP-HPLC; conditions: for ω-transaminase activity converting N5-acetyl-1,5-diaminopentane to N5-acetyl-5-aminopentanal (substrate acceptance): cell free extract, 10 mM N5-acetyl-1,5-diaminopentane, 10 mM pyruvate, pH 7.5, 25° C., 4 h, against empty vector control (FIG. 15); for ω-transaminase acceptance of N5-acetyl-5-aminopentanal forming N5-acetyl-1,5-diaminopentane, concluded from reversibility: concluded from reversibility of the ω-transaminase activity (Example 1)
Method: The activity of the N-terminal His-tagged ω-transaminases of SEQ ID NOs: 8, 10-13 (see Example 3, and FIG. 10) for converting N5-acetyl-1,5-diaminopentane to N5-acetyl-5-aminopentanal was assayed using a buffer composed of a final concentration of 50 mM HEPES buffer (pH=7.5), 10 mM N5-acetyl-1,5-diaminopentane, 10 mM pyruvate and 100 μM pyridoxyl 5′ phosphate. Each enzyme activity assay reaction was initiated by adding a cell free extract of the ω-transaminase or the empty vector control to the assay buffer containing the N5-acetyl-1,5-diaminopentane then incubated at 25° C. for 4 h, with shaking at 250 rpm. The formation of L-alanine was quantified via RP-HPLC.

[2] = ω-transaminase enzyme activity assay, forward direction (glutarate semialdehyde to 5-aminopentanoate), pyruvate formation by RP-HPLC; conditions: for ω-transaminase acceptance of glutarate semialdehyde, synthesizing 5-aminopentanoate, concluded from reversibility: concluded from confirmed reversibility of the ω-transaminase activity
Method: (§1) A nucleotide sequence encoding an N-terminal His-tag was added to the genes from Chromobacterium violaceum and Rhodobacter sphaeroides encoding the ω-transaminases of SEQ ID NOs: 8 and 10 respectively (see FIG. 10) such that N-terminal HIS tagged ω-transaminases could be produced. Each of the resulting modified genes was cloned into a pET21a expression vector under control of the T7 promoter and each expression vector was transformed into a BL21[DE3] E. coli host. The resulting recombinant E. coli strains were cultivated at 37° C. in a 250 mL shake flask culture containing 50 mL LB media and antibiotic selection pressure, with shaking at 230 rpm. Each culture was induced overnight at 16° C. using 1 mM IPTG.
(§2) The pellet from each induced shake flask culture was harvested via centrifugation. Each pellet was resuspended and lysed via sonication. The cell debris was separated from the supernatant via centrifugation and the cell free extract was used immediately in enzyme activity assays.
Enzyme activity in the forward direction (i.e., glutarate semialdehyde to 5-aminopentanoate) was confirmed for the transaminase of SEQ ID NO 10. Enzyme activity assays were performed in a buffer composed of a final concentration of 50 mM HEPES buffer (pH=7.5), 10 mM glutarate semialdehyde, 10 mM L-alanine and 100 μM pyridoxyl 5′ phosphate. Each enzyme activity assay reaction was initiated by adding a cell free extract of the ω-transaminase gene product or the empty vector control to the assay buffer containing the glutarate semialdehyde and incubated at 25° C. for 4 h, with shaking at 250 rpm. The formation of pyruvate was quantified via RP-HPLC.

[3] = carboxylate reductase enzyme activity assay (glutarate semialdehyde to pentanedial), NADPH consumption at 340 nm; conditions: purified enzyme enhanced by gene product of sfp, 2 mM glutarate semialdehyde, 1 mM ATP, 1 mM NADPH, pH 7.5, room temperature, 20 min, against empty vector control (FIG. 16)
Method: The N-terminal His-tagged carboxylate reductase of SEQ ID NO 7 (see Example 3 and FIG. 10) was assayed using glutarate semialdehyde as substrate. The enzyme activity assay was performed in triplicate in a buffer composed of a final concentration of 50 mM HEPES buffer (pH=7.5), 2 mM glutarate semialdehyde, 10 mM MgCl2, 1 mM ATP and 1 mM NADPH. The enzyme activity assay reaction was initiated by adding purified carboxylate reductase and phosphopantetheine transferase or the empty vector control to the assay buffer containing the glutarate semialdehyde and then incubated at room temperature for 20 min. The consumption of NADPH was monitored by absorbance at 340 nm.

[4] = ω-transaminase enzyme activity assay, reverse direction (5-aminopentanoate to glutarate semialdehyde), L-alanine formation from pyruvate by RP-HPLC; conditions: cell free extract, 10 mM 5-aminopentanoate, 10 mM pyruvate, pH 7.5, 25° C., 4 h, against empty vector control (FIG. 18)
Method: as §1, §2
Enzyme activity assays in the reverse direction (i.e., 5-aminopentanoate to glutarate semialdehyde) were performed in a buffer composed of a final concentration of 50 mM HEPES buffer (pH=7.5), 10 mM 5-aminopentanoate, 10 mM pyruvate and 100 μM pyridoxyl 5′ phosphate. […] The formation of L-alanine from pyruvate was quantified via RP-HPLC.

| ω-transaminase activity converting 5-aminopentanoate to glutarate semialdehyde (substrate acceptance) [4] | Molecule | ω-transaminase activity converting N5-acetyl-1,5-diaminopentane to N5-acetyl-5-aminopentanal (substrate acceptance) [1] | ω-transaminase acceptance of N5-acetyl-5-aminopentanal forming N5-acetyl-1,5-diaminopentane, concluded from reversibility [1] | ω-transaminase activity converting glutarate semialdehyde to 5-aminopentanoate (substrate acceptance) ([2]; cell free extract, 10 mM glutarate semialdehyde, 10 mM L-alanine, pH 7.5, 25° C., 4 h, against empty vector control (FIG. 19)) | ω-transaminase acceptance of glutarate semialdehyde, synthesizing 5-aminopentanoate, concluded from reversibility [2] | carboxylate reductase activity converting glutarate semialdehyde to pentanedial (substrate acceptance) [3] |
| --- | --- | --- | --- | --- | --- | --- |
| – | B1 | accepted N5-acetyl-1,5-diaminopentane as substrate | accept N5-acetyl-5-aminopentanal as substrate forming N5-acetyl-1,5-diaminopentane | accepted glutarate semialdehyde as substrate | accepted glutarate semialdehyde as substrate and synthesized 5-aminopentanoate | – |
| – | B2 | – | – | – | – | accepted glutarate semialdehyde as substrate |
| accepted 5-aminopentanote as substrate | B3 | accepted N5-acetyl-1,5-diaminopentane as substrate | accept N5-acetyl-5-aminopentanal as substrate forming N5-acetyl-1,5-diaminopentane | – | accepted glutarate semialdehyde as substrate and synthesized 5-aminopentanoate | – |

Reference: US9957535B2, “Methods, reagents and cells for biosynthesizing compounds” (INVISTA North America S.á r.l., priority 2014, dated 2018)
